Experiments:
[1] = biological target: SARS-CoV-2 S-2P protein (SARS-CoV-2 | bacteriophage T4)
[2] = biological target: S2P6 (human); experiment: BLI
Chain of S2P6 (human) (VH, as listed by the source, chain 1 of 2): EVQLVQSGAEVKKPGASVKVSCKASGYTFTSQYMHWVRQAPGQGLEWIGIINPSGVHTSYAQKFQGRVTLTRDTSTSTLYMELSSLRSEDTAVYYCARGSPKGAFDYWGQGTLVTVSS
Chain of S2P6 (human) (VL, as listed by the source, chain 2 of 2): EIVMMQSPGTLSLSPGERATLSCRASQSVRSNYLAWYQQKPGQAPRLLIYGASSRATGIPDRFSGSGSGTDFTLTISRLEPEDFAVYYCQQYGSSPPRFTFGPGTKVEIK

Chain of S2P6 (antibody) (VH): as the sequence (VH, as listed by the source, chain 1 of 2) above
Chain of S2P6 (antibody) (VL): as the sequence (VL, as listed by the source, chain 2 of 2) above

Substance S2P6 (antibody) has an IC50 of neutralisation of SARS-CoV-2 pseudovirus (HeLa-hACE2 cells) [1] of 6.16 µg/mL.
With “SARS-CoV-2 S-2P protein (domain or fragment)” the Kd [2] was 1.3 nM and the kon [2] was 559000 M⁻¹ s⁻¹.

Reference: PMC13480645
